Laboratory results from patent US20200040086A1 (BERLIN CHEMIE, published 2020).

Assays:
Test in all cases: peptide microarray of 8mer LY75 peptides, LY75_A1 at 1 µg/mL, anti-human IgG Alexa 647
SCYKVFHA = molecular target: T1, SCYKVFHA
T1 construct: 8mer of LY75 on the peptide microarray, chart Region 2
T1 peptide: SCYKVFHA
Experimental: (§1) The peptide microarray analysis was performed by LC Sciences, Houston Tex., in brief the method comprised the following steps:—Contiguous 8mer peptides of LY75 protein having […] spanning residues 216 to 1666 of the full length LY75 protein were synthesized and immobilized on a microarray chip. The chip comprised three panels such that the experiment was performed in triplicate. The microarray was addressed with LY75_A1 to identify the peptides to which the antibody bound. The binding assay was performed under the following conditions:—
(§2) The microarray comprising the contiguous peptides in triplicate was washed with 1 mL of binding buffer at 4° C. for 20 min. It was then incubated with 1 μg/mL LY75_A1 in binding buffer (pH 7.0) at 4° C. for 2 hrs. The array was again washed with 0.5 mL of washing buffer at 4° C. for 30 min then incubated with 25 ng/mL anti-human IgG Alexa 647 conjugate in binding buffer (pH 7.0) at 4° C. for 1 hr. The array was again washed with 0.5 mL of washing buffer at 4° C. for 30 min.

EVKDCRSF = molecular target: T2, EVKDCRSF
T2 construct: 8mer of LY75 on the peptide microarray, chart Region 1
T2 peptide: EVKDCRSF
Experimental: as §1, §2

PWRRGWHF = molecular target: T3, PWRRGWHF
T3 construct: 8mer of LY75 on the peptide microarray, chart Region 3
T3 peptide: PWRRGWHF
Experimental: as §1, §2

YDDREFIY = molecular target: T4, YDDREFIY
T4 construct: 8mer of LY75 on the peptide microarray, chart Region 3
T4 peptide: YDDREFIY
Experimental: as §1, §2

DREFIYLR = molecular target: T5, DREFIYLR
T5 construct: 8mer of LY75 on the peptide microarray, chart Region 3
T5 peptide: DREFIYLR
Experimental: as §1, §2

DDHFTYSR = molecular target: T6, DDHFTYSR
T6 construct: 8mer of LY75 on the peptide microarray, chart Region 4
T6 peptide: DDHFTYSR
Experimental: as §1, §2

YSRYPWHR = molecular target: T7, YSRYPWHR
T7 construct: 8mer of LY75 on the peptide microarray, chart Region 4
T7 peptide: YSRYPWHR
Experimental: as §1, §2

RYPWHRFP = molecular target: T8, RYPWHRFP
T8 construct: 8mer of LY75 on the peptide microarray, chart Region 4
T8 peptide: RYPWHRFP
Experimental: as §1, §2

YPWHRFPV = molecular target: T9, YPWHRFPV
T9 construct: 8mer of LY75 on the peptide microarray, chart Region 4
T9 peptide: YPWHRFPV
Experimental: as §1, §2

ELTYSNFH = molecular target: T10, ELTYSNFH
T10 construct: 8mer of LY75 on the peptide microarray, chart Region 5
T10 peptide: ELTYSNFH
Experimental: as §1, §2

YSNFHPLL = molecular target: T11, YSNFHPLL
T11 construct: 8mer of LY75 on the peptide microarray, chart Region 5
T11 peptide: YSNFHPLL
Experimental: as §1, §2

SERHFVSL = molecular target: T12, SERHFVSL
T12 construct: 8mer of LY75 on the peptide microarray, chart Region 6
T12 peptide: SERHFVSL
Experimental: as §1, §2

FVSLCQKY = molecular target: T13, FVSLCQKY
T13 construct: 8mer of LY75 on the peptide microarray, chart Region 6
T13 peptide: FVSLCQKY
Experimental: as §1, §2

VSLCQKYS = molecular target: T14, VSLCQKYS
T14 construct: 8mer of LY75 on the peptide microarray, chart Region 6
T14 peptide: VSLCQKYS
Experimental: as §1, §2

YLNNLYKI = molecular target: T15, YLNNLYKI
T15 construct: 8mer of LY75 on the peptide microarray, chart Region 7
T15 peptide: YLNNLYKI
Experimental: as §1, §2

AVYFHQHS = molecular target: T16, AVYFHQHS
T16 construct: 8mer of LY75 on the peptide microarray, chart Region 8
T16 peptide: AVYFHQHS
Experimental: as §1, §2

YFHQHSIL = molecular target: T17, YFHQHSIL
T17 construct: 8mer of LY75 on the peptide microarray, chart Region 8
T17 peptide: YFHQHSIL
Experimental: as §1, §2

KKLSRLTY = molecular target: T18, KKLSRLTY
T18 construct: 8mer of LY75 on the peptide microarray, chart Region 9
T18 peptide: KKLSRLTY
Experimental: as §1, §2

LSRLTYSS = molecular target: T19, LSRLTYSS
T19 construct: 8mer of LY75 on the peptide microarray, chart Region 9
T19 peptide: LSRLTYSS
Experimental: as §1, §2

NGSRWIQY = molecular target: T20, NGSRWIQY
T20 construct: 8mer of LY75 on the peptide microarray, chart Region 10
T20 peptide: NGSRWIQY
Experimental: as §1, §2

SRWIQYKG = molecular target: T21, SRWIQYKG
T21 construct: 8mer of LY75 on the peptide microarray, chart Region 10
T21 peptide: SRWIQYKG
Experimental: as §1, §2

YKGHCYKS = molecular target: T22, YKGHCYKS
T22 construct: 8mer of LY75 on the peptide microarray, chart Region 10
T22 peptide: YKGHCYKS
Experimental: as §1, §2

KGHCYKSD = molecular target: T23, KGHCYKSD
T23 construct: 8mer of LY75 on the peptide microarray, chart Region 10
T23 peptide: KGHCYKSD
Experimental: as §1, §2

Measured: binding result

B1: LY75_A1 (antibody, V domains shown)
VH: EVQLVESGGGLVKPGGSLRLSCAASGFTYSNAWMSWVRQAPGKGLEWVGRIKSKTDGGTTDYAAPVQGRFTISRDDSKNTLYLQMNSLKTEDTAVYYCTIFGVVSFDYWGQGTLVTVSS
VL: DVQMTQSPSSLSASVGDRVTITCRASQSISDYLSWYQQRPGKAPNLLIYAASNLKTGVPSRFSGSGSGTDFTLTISTLQPEDFATYYCQQSYRSPWTFGQGTKVEIKR
notes: detected with anti-human IgG in the microarray; also called antibody LY75_A1; LY75_A1 monoclonal antibody
binds: all assays above
